Results as given in article PMC3058911.

Legend:
[1] = target: CdiI536-T18 (bacterial two-hybrid fusion) (E. coli UPEC 536); assay: two-hybrid
[2] = target: CdiI3937-2-T18 (bacterial two-hybrid fusion) (Dickeya dadantii 3937) (UniProt E0SDG7); assay: two-hybrid
UniProt E0SDG7, sequence (E0SDG7 whole entry, the tested form may be a part): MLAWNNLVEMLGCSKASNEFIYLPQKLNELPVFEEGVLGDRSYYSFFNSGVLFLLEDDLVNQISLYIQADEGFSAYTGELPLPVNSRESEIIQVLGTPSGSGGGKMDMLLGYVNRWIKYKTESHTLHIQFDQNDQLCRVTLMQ

Substance | β-galactosidase activity [1] [units] | β-galactosidase activity [2] [units]
T25-CdiA-CT536 (bacterial two-hybrid fusion) (domain or fragment) | > 300 | –
T25-CdiA-CT3937-2 (bacterial two-hybrid fusion) (from UniProt E0SDG8 1-3326) (domain or fragment) | – | > 300
